Reference: the DeepSol protein solubility set

assay: soluble on expression in E. coli; label from the status in PepcDB or PDB records

Sequence	soluble on expression in E. coli
MSLSQPIKLGIITDRVGAAKPYAEPVLQGAQVAAKELNASGGVLGRPIELLVEDDQGRPDLSATAARKMVDSGVAFILSISWTSATQQAQSVTVETGTPHLAPSNSGDTLTTQIANPNFWQTGPLASSQVSTLLAYARSKSFKRVAIIGDNTGLGQLMTQSFKAGIEAAKIQVVSEEVVPRGANSADAQIQRVRASNPDAIFLTGILAPENTLILRAYRLLGLKAPLLGNFSFSNIQYASVAKGLLDGLVFIDAFDPTKPQVQRFIATYTKAAGTAPDNINAYGYDGVMLVADAIRRAGGTDKLKVRDAMQATKGFVGVLGAQGASYGFANGKRTGFDGDGLVVRIYEGDRQGKVQFTGTREGHHHHHH	soluble
MKSLGNRQRFLRRAREELKRSIRDKVRAGGIAELDREHVVPIPRKGTGEPTFGDDKESGRRQHILPGNRTFSSGDLIPKPGGGGGYGSAAGTTESEDDFRFVLSREEVLDLFFEDLELPDLVKLNLKQVLSFKPRRAGFAASGAPTNINVGRTMRNSHGRRIALRRPKQAELDAIARQIAELEAKPASALVRERIAALREALDRLERRRKRIAYVDPVDIRFNRFDPQPLPNANAVMFCLMDVSGSMGEREKDLAKRFFVLLHLFLTRRYERTDIVFIRHTHLAKEVDEHTFFYHTESGGTVVSTALEEMHRIIEQRYPVAEWNIYAAQASDGDNFAGDSERCIELLDRKLMRLCQYFAYVEIIDERESHIFGATENGTSLWRAYNAVDGKWPNFQMRRIAAPADIYPVFRQLFARQPDLRKSALEHHHHHH	soluble
MDDPKQPTWNVSPSLRRHARELRKKSTEAERLMWGELRDKRLNGFSFKRQVPIGPYIADFACHAKKLVVELDGGQHFSDDGERSDAARTAAIEARGFRVIRFSNHEVMTNRAGVLQSIADVLAARVLTPTLSRKRERERAKRAAKPRSDAGAANDQGDE	not soluble
GPGSMSAGGRETAPMNLLRRRNKDEINGDVNAAADRFRNRFEKATLEERKAATTTMVNEYYDLVTDFYEYGWGQNFHFAPRYAGETFFESLARHEYFLAARGGFMEGDHIVDVGCGVGGPARNIVRLTRCNVTGVNNNDYQISRARRHDALAGMSCKIDYVKTDFCNMSLADNTFDGAYAIEATCHAKDKVKCYSEVFRVIKPGTCFVLYEWCMTDKYNPNDEYHRTIKHRIELGDGLPEMETCKQVIEYMKEAGFVVEEAIDVISQFESSPIKSIPWYQPLVGDYSSLQGLRSTPIGRILTNIMCRVLEFVHLAPKGTYKATEVLEEAAESLVVGGQLGIFTPSFYIRARKPSKQA	not soluble
QDLARIEQFLDALWLEKNLAENTLNAYRRDLSMMVEWLHHRGLTLATAQSDDLQALLAERLEGGYKATSSARLLSAVRRLFQYLYREKFREDDPSAHLASPKLPQRLPKDLSEAQVERLLQAPLIDQPLELRDKAMLEVLYATGLRVSELVGLTMSDISLRQGVVRVIGKGNKERLVPLGEEAVYWLETYLEHGRPWLLNGVSIDVLFPSQRAQQMTRQTFWHRIKHYAVLAGIDSEKLSPHVLRHAFATHLLNHGADLRVVQMLLGHSDLSTTQIYTHVATERLRQLHQ	soluble
MAKGTPVTLTTNTEGATIYYTLDGSNPTNKSVRYNGRIVVNENSVIKAIAEKEGLTSSAISTFSFVIVNNEPVRIHDIQGKSHLSPYNGKKVYNVEGVVTALDKNGFYIEDNQPDNDPATSEGMYVYKKDANVAVGDLIQVDGVVEEYVGPGYAERFDTDLTTTEIKASRVVVIAKDQVLPAPIVLGENGVKIPDQIIDNDAFGLFDPNEDAIDFYESVEGMRVTMPTPKIIAPQKNGNLYVTVKNGGNKVVTKYGTPVLDENQLNPERLSVKVPRDYVAKVGDTFTGDITGVVGYDYGSFRIAPITELPSVVDGGFKQIGANIQPRLEHHHHHH	not soluble
GPGSMFFYQRRLASGLPVRFLSLRAWRSSPENFRKTSAFLKALKAKTPAAGVSAEGFGARPVVVITGGERGIGKEVVHQLLREGVDVILCCPFEAEALRTIARLKARVSNSRVHFVKLDLNDEESVRECAAEVLGMTPRIDVLINNSGLVSPLSHKLNKRGYEVVLSINFLGHVLFTELLLERVKASGPSRIVNVASLMHLDACVEGPCKTALDVMAANCDPTSPHHTRNYSLSKLLLVCYTRDLARHLRGTDTAVATLHPGVVITDIYAFAVIFMRVFFRTVFKFPGEGAEVVLYCALADNIRSGSFYADCAEYNSLLSPLAVDDAHNERLRRVLLRYFALDGSKPTGKSLADVVQSTP	not soluble
MPTLLIRLQGPLQSWGTRSRFDHRDTWPYPTKSGVVGLLAAALGRDRREDVSDLAALRMGVRVDRKGVLKVDYQTAQFVYRTEGYVAVSTPKEREWLSRYTKTPIRVDERNATVTSKRYFLSDAAFLVGLEGERALLEALHRALKNPRFPLYLGRKSYVPSPPPYLPDGLVEAPLAEALEGYPYLLGGKPPEDLLLALEAEEGRLVYDQPAGPFSERRFAARFVREEVLPKERVPEGPPAWEVARVAH	soluble
MTLNDKYPFTDEDQAIINSYKAVVDGVSALIGEHCEIVLHSLENIEHSAICIANGHNTNRQVGSPITDLALRSLRNMQSESVSKPYFTRAKGSVLMKSVTIAIRNKTQRIIGLLCININLDVPVSQFLQCFMLTEHTNETSSVNFANSVEDLVAQTIEKTIEEVNADRAVANNTKNRQIVLSLYEKGIFDIKDAINLVAERLDISRHTVYLYIRQIKQEQE	not soluble
MGSSHHHHHHGGTGENLYFQGGSGLLSHHCIYPSRMFGDGRLLMDTSISGGMLLGLDVCGGVKLWPQHQYTAVELILPSALSGVREVLVPPVSMSGAGEESQRASEAGSGKQRASSPPLPRNLPGSRVIRIIHEASEIPAEVAGSYNSALNGSRRKGSKAMRSLDRGPAGTSGGRASSSIVPRYFDEFHRLRSQRVMEGSLKTVLEATNASIIGEARLRRQRRRYAVKHNKTIFIKGKTAAGDEQ	not soluble
MGSDKIHHHHHHMTMDKLLTVCGLSLEVARTGQQVVKSVSFDLAPGEIFGIVGESGSGKTLATRALISLLPPTIKVADGSVSYKGRDVLKMKENELRHLRGAEIGVVFQEPMTSLNPSMTIGRQLEEGLILHTKASAQERRSLILDMLKRVGIRDPEGALSSYPHEFSGGMRQRIMLASVMLLKPALLIADEPTTALDAVIQRDVMELMVELTRAEGTAILLISHDLPMVARYTSRIVVMEKGAIVEKGRTEDLLKAPQHPYTKKLLSSLPFRGRPRQIDLTSVPMISARDIIVDYAGRKSLFRKNKPKRALHGVSIDIHEGEVVALVGGSGSGKTTLGRTIAGLVTESEGRIQFQGRPRTENWTDYRLNCQMVFQDPYSSLDPRMTIEALVEEALRPVPGLDGKAKRKRTLETLEEVGLGVDYAGRYPHELSGGQRQRVAIARAIARRPRFLIADEPVSALDVTVRAQVLDLFSDLQKRYGFSCLFISHDLGVVEQVADRVVVMQDGRIIEEGDRDTIFDSPKEAYTRRLLSAIPALDQNEKGGVTLKWRLEN	not soluble
MIAMDIREIGLRLVGEAIKAADPYRAVLNAVKVSDDKIIVQGKEFEIKGKVYVIALGKAACEMARAIEDILDVEDGVAVTKYGYGKELKRIKVIEAGHPIPDEKSILGAKEALSILNRARENDIVFILISGGGSALFELPEEGISLEDLKLTTDLLLKSGAKIHEINTVRKHISKVKGGKLAKMIKGTGIVLIISDVVGDNLEAIASGPTVKDPTTFEDAKRILELYDIWEKVPESVRLHIERGLRGEVEETLKEDLPNVHNFLIASNSISCEAIAREAQRLGFKAYIMTTTLEGEAKDAGLFIGSIVQEIAERGRPFEPPVVLVFGGETTVTIEGKGGKGGPNQEIALSATRKISDLEALIVAFDTDGTDGPTDAAGGIVDGTTYKKLREKGIDVEKVLKEHNSYEALKKVGGLLFTGPTGTNVNSIVIAIVTSKRGRT	soluble
MSLTGGVISGLGKGTITSSIGHILKDSGIKVSAVKIDPYINYDAGTMNPYQHGEVFVLDDGGEVDLDLGNYERFMNINLSRDNNITTGKVYLEVIQKERHGDYLGKTVQIIPHITDEIKRRIREVARTSGADVVLIEVGGTVGDIESMPFLEALRQLKREEQNVVFAHVTLVPEIGPTMEQKTKPTQHSVKALREIGIQPDIIFARSKQKLTEETKSRISLFTDVPVEGIISVSDVENVYLLPQMMVNEGLITRLSKLLNMNIEYRDSWTSYAENIRHPRDRVKVAIVGKYVDLHDAYISHKEAFSHVTGNTGIAVDIMWIDSEKVKNDQSVLSEADAILIPGGFGYRGVEGKIAATRYAMENGVPFLGICLGFQVAVIAVARYVLGLDGANSTEFDEKTKYPVVDILPEQRGVKDMGGTMRLGSKKVVIKKGTLAHRIYGADVIYERHRHRYEVNPDYIDMIEKAGFKFSATDEEGIRMEILERPGDESFIATQYHSEFKSRPLDPSKVHLHLVEQALIFKHRRMGENHEGYATAASSQGQEGHHHHHH	soluble
